The test system of one assay is plasma norepinephrine. Kind of assay: Plasma norepinephrine after renal IR (ELISA). It counts as in vivo. The following applies: 1.5 mg/kg; mice subjected to renal IR; vehicle 2.4±0.13 ng/mL. The protocol:
(§1) Adult male renalase deficient (KO) mice (Wu et al., 2011, Kidney Int 79: 853-860) on a C57BL/6 background were subjected to renal ischemia/reperfusion (IR) as described (Kim et al., 2009, Kidney Int 75: 809-823; Kim et al., 2010, Am J Physiol Renal Physiol 299(2):F347-58). Renalase KO or wild type (WT) mice (C57BL/6 from Harlan Labs, Indianapolis, Ind.) were subjected to sham-operation or to 20 min. (moderate) or 30 min. (severe) renal ischemia and 24 hr. reperfusion. To test the renal protective effects of recombinant human renalase, mice were pretreated with saline (vehicle) or with recombinant renalase (0.5, 1.5 or 4.5 mg/kg, s.c.) 10 min. prior to 30 min. renal ischemia. It was also tested whether renalase treatment after completion of renal ischemia also provides renal protection. Separate cohorts of mice were treated with saline or with renalase (1.5 mg/kg, s.c.) 30 min. or 60 min. after reperfusion of the ischemic kidney. To test whether blocking alpha receptors would mimic the renal protective effects of human recombinant renalase administration, phentolamine (an alpha receptor antagonist, 5 mg/kg, i.p.) was given in some mice 15 min. before renal ischemia.
Plasma norepinephrine in mice subjected to sham-operation or to renal IR was measured with a commercial ELISA kit according to the manufacturer's instructions (Rocky Mountain Diagnostics, Colorado Springs, Colo.).

Assay [1] concerns renal ischemia/reperfusion (IR) injury. Description: Murine model of renal ischemia/reperfusion (IR) injury, plasma creatinine. It counts as in vivo, mice. The protocol:
as §1
Plasma creatinine was measured as described with an enzymatic creatinine reagent kit according to the manufacturer's instructions (Thermo Fisher Scientific, Waltham, Mass.) (Slot, 1965, J Clin Lab Invest 17: 381-387).
After animal care and use committee approval, adult male C57BL/6 (Harlan Labs, Indianapolis, Ind.) were subjected to sham-operation or to 30 minutes of renal ischemia followed by 24 hrs of reperfusion as previously described (Lee et al., 2004, American journal of physiology. Renal physiology 286:F298-306). To test the renal protective effects of renalase peptides (RP-220, RP-H220 and RP-224), mice were pretreated with saline (vehicle) or with renalase peptides (100 μg subcutaneous) 10 to 30 minutes prior to renal ischemia.
Blood was collected from mice anesthetized with isoflurane via cardiac puncture into a heparinized syringe and was subsequently centrifuged to separate plasma. Samples were submitted to the Yale O'Brien Kidney Center for measurement of BUN and creatinine. Plasma creatinine was measured either by an enzymatic creatinine reagent kit according to the manufacturer's instructions (Thermo Fisher Scientific, Waltham, Mass.) or by HPLC. These methods of creatinine measurement largely eliminate the interferences from mouse plasma chromagens, known to occur with the Jaffe method.

In another assay the test system is HK-2 cells. Kind of assay: HK-2 cell necrosis induced with 2 mM H2O2 (LDH release). It counts as cell-based, human. The protocol: HK2 cells (human proximal tubular line) obtained from ATTC (Manassas, Va., USA) were cultured in DMEM/F12 supplemented with glutamine, 10% FBS and antibiotics, and were maintained at 37° C. in 5% CO2. Cells were exposed to cisplatin (20 μM) in the presence or absence of renalase for 24 hrs, and cell viability was assessed by the WST1 method (Roche Applied Science, Germany). Cells were then harvested in RIPA buffer (20 mM Tris-HCl pH 7.5, 150 mM NaCl, 1 mM Na2EDTA, 1 mM EGTA, 1% NP-40, 1% sodium deoxycholate, 2.5 mM sodium pyrophosphate, 1 mM β-glycerophosphate, 1 mM Na3VO4, 1 μg/ml leupeptin) supplemented with a protease and phosphatase inhibitor cocktail (Roche Applied Science, Germany). Proteins were separated by SDS-PAGE and Western blotting was carried out using the following antibodies: anti-renalase monoclonal (Desir et al., 2012, J Am Heart Assoc. 1:e002634; (Lee et al., 2013, J Am Soc Nephrol 24:445-455); anti caspase 3 (Cell Signaling Technology, MA, USA) and anti Bcl2 (Thermo Scientific, USA). Necrotic injury in HK-2 cells (ATCC, Manassas, Va.) was induced with exposure to 2 mM H2O2 for 2-8 hr and lactate dehydrogenase (LDH) released into cell culture media was measured as described using a commercial LDH assay kit (Promega, Madison, Wis.) (Lee and Emala, 2002, American journal of physiology. Renal physiology 282:F844-852).

Results on one molecule are retold here after US10066025B2, “Compositions and methods for detecting, treating and preventing diseases and disorders” (YALE UNIVERSITY, priority 2012, dated 2018).

B1: recombinant renalase: human recombinant renalase, 38 kDa FAD-dependent amine oxidase; renalase polypeptide SEQ ID NO: 9 or 10 (protein, UniProt Q5VYX0 18-342, looked up)
Renalase: ALLRRQTSGPLYLAVWDKAEDSGGRMTTACSPHNPQCTADLGAQYITCTPHYAKKHQRFYDELLAYGVLRPLSSPIEGMVMKEGDCNFVAPQGISSIIKHYLKESGAEVYFRHRVTQINLRDDKWEVSKQTGSPEQFDLIVLTMPVPEILQLQGDITTLISECQRQQLEAVSYSSRYALGLFYEAGTKIDVPWAGQYITSNPCIRFVSIDNKKRNIESSEIGPSLVIHTTVPFGVTYLEHSIEDVQELVFQQLENILPGLPQPIATKCQKWRHSQVTNAAANCPGQMTLHHKPFLACGGDGFTQSNFDGCITSALCVLEALKNYI
Turning to B1, in the assay on plasma norepinephrine, the plasma norepinephrine was 1.6 ± 0.2 ng/mL. Besides, the figures for the “protection against renal IR injury, post-ischemic treatment” value in assay [1] (1.5 mg/kg given 30 min. after reperfusion) and in assay [1] (given 60 min. after reperfusion) were “protective against renal IR injury” and “did not provide renal protection”, respectively. Moreover, the “renal protection at higher dose compared with 1.5 mg/kg” value in assay [1] (4.5 mg/kg s.c. 10 min. before renal ischemia) is recorded as “provided reduced renal protection”. The “increases in plasma creatinine after renal IR” value in assay [1] (0.5, 1.5 or 4.5 mg/kg s.c. 10 min. before 30 min. renal ischemia, 24 hr. reperfusion) was “significantly attenuated the increases in plasma creatinine”. For the same molecule, the plasma creatinine in assay [1] (recombinant renalase 1.5 mg/kg, 30 min. warm ischemia, decreased from ~2.4 mg/dL) is given as 1.4 mg/dL. The “LDH released at 6 hr” value in the assay with HK-2 cells (10 μg/ml, 2 mM H2O2, vehicle LDH=47+3%) amounted to 28±2%. Also, in the assay on HK-2 cells (vs. vehicle-treated HK-2 cells), the “necrosis induced with 2 mM H2O2” value is recorded as “significantly reduced necrosis”.
